We go through 2 molecules from publication PMC3463739 (Protein expression and purification, 2012).

First the molecules themselves.
B1: [PPE172_(15)], recombinant polyprotein of 15 tandem repeats of the human titin exon 172 PEVK module (other)
chain: PEPPKEVVPEKKAPVAPPKKPEVPPVKVPEPPKEVVPEKKAPVAPPKKPEVPPVKVPEPPKEVVPEKKAPVAPPKKPEVPPVKVPEPPKEVVPEKKAPVAPPKKPEVPPVKVPEPPKEVVPEKKAPVAPPKKPEVPPVKVPEPPKEVVPEKKAPVAPPKKPEVPPVKVPEPPKEVVPEKKAPVAPPKKPEVPPVKVPEPPKEVVPEKKAPVAPPKKPEVPPVKVPEPPKEVVPEKKAPVAPPKKPEVPPVKVPEPPKEVVPEKKAPVAPPKKPEVPPVKVPEPPKEVVPEKKAPVAPPKKPEVPPVKVPEPPKEVVPEKKAPVAPPKKPEVPPVKVPEPPKEVVPEKKAPVAPPKKPEVPPVKVPEPPKEVVPEKKAPVAPPKKPEVPPVKVPEPPKEVVPEKKAPVAPPKKPEVPPVKV
B2: nebulin SH3 (domain or fragment, human, UniProt P20929 8466-8525, looked up)
chain: TAGKIFRAMYDYMAADADEVSFKDGDAIINVQAIDEGWMYGTVQRTGRTGMLPANYVEAI

In experiment [1] the target is B2. The experiment in a line: ELISA. On the technique in general: ELISA stands for enzyme-linked immunosorbent assay.
Experiment [2] addresses B2. The experiment in a line: ELISA. This is another data set of the same source.
Experiment [3] deals with B2. In words: SPR. (In general: SPR reads the build-up and loss of mass on a sensor chip optically.)
The target of experiment [4] is B1. In words: ELISA.
Experiment [5] deals with B1. In words: ELISA.

Like-named read-outs stand apart in the source and are kept apart here.

Regarding B1, the dissociation constant (Kd) came out at 7 µM in the experiment with nebulin SH3 [1], 23 µM with nebulin SH3 [2] and 340 µM with nebulin SH3 [3].
Take B2: the “KD in the presence of 50 μg/ml RT11” value in experiment [4] was determined as 9.69 µM; in experiment [5] it was 471 µM.

For orientation: Kd means the constant that tells how readily two partners part at equilibrium. Read a low Kd as a tighter complex.
